One molecule from PMC5095173, “Disulfide-activated protein kinase G Iα regulates cardiac diastolic relaxation and fine-tunes the Frank–Starling response” (Nature Communications, 2016) can be followed below.

In this assay the target is T1, phospholamban (mouse myocardium) (mouse (endogenous in mouse heart)), P61014.
T1 chain: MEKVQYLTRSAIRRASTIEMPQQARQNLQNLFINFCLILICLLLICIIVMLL
In words: SDS-PAGE of samples not boiled, with immunoblot; mouse heart homogenate, samples not boiled before western blotting for total PLN; WT and C42S PKGIα KI hearts. The note with it: remark: other sources report otherwise. A general note: In western blotting, separated proteins are transferred to a membrane and probed.

B1: phospholamban (mouse myocardium), P61014 1-52 (natural protein)
chain: MEKVQYLTRSAIRRASTIEMPQQARQNLQNLFINFCLILICLLLICIIVMLL
Regarding B1, the stoichiometry N (as a rule, the number of molecules, sites or subunits per partner or assembly) came out at 5.
